Reference: patent US20050170334A1 (published 2005)

B1: human anti-M2 antibody C40 (antibody, V domains shown)
VH: QLQLQESGPGLVKPSETLSLTCTVSGGSISSSFYYCGWIRQPPGKGLEWIGSIYYRGSTYYNPSLKSRVTISVDTSKNQFSLKLSSVTAADTAVYYCARRVTMVRGVKGDYFDYWGQGTLVTVSS
VL: DIQMTQSPSSLSASVGDRVTITCRASQGISSWLAWYQQKPEKVPKSLIYAASSLQSGVPSRFSGSGSGTDFTLTISSLQPEDFATYYCQQYNYYPLTFGGGTKVEIKR
B2: C40G1 (antibody, V domains shown)
VH: QLQLQESGPGLVKPSETLSLTCTVSGGSISSSFYYCGWIRQPPGKGLEWIGSIYYRGSTYYNPSLKSRVTISVDTSKNQFSLKLSSVTAADTAVYYCARRVTMVRGVKGDYFDYWGQGTLVTVSS
VL: DIQMTQSPSSLSASVGDRVTITCRASQGISSWLAWYQQKPEKVPKSLIYAASSLQSGVPSRFSGSGSGTDFTLTISSLQPEDFATYYCQQYNYYPLTFGGGTKVEIKR
B3: N547 (antibody, V domains shown)
VH: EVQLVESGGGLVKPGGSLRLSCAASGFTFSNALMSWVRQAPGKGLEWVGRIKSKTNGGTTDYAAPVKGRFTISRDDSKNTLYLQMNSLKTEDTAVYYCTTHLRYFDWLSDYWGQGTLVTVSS
VL: QSVLTQPPSMSAAPGQKVTISCSGSSSNIGNNYISWYQQLPGTAPKVLIYDNNKRPSGIPDRFSGSKSGTSATLGITGLQTGDEADYYCGSWDSSLSAGVFGTGTKVTVLG
B4: L66 (antibody, V domains shown)
VH: EVQLVESGGGVVRPGGSLRLSCAASGFTFDDYGMSWVRQAPGKGLEWVSGINWNGGSTGYADSVKGRFTISRDNAKNSLYLQMNSLRAEDTALYYCARDRVTMVRGVIMDYYGMDVWGQGTTVTVSS
VL: QTVVTQEPSLTVSPRGTVTLTCSSSTGAVTSGYYPGWFQLKPGQAPMSLIYSARKKHSWTPARFSGSLLGGKAALTLSGVQPEDEAEYYCLLYYGGAYVFGTGTKVTVLG

Legend:
BSA = target: T1, BSA (UniProt P02769 25-607); test: ELISA
T1 construct: carrier for immunization

OVA = target: T2, OVA (UniProt P01012 2-386); test: ELISA
T2 sequence: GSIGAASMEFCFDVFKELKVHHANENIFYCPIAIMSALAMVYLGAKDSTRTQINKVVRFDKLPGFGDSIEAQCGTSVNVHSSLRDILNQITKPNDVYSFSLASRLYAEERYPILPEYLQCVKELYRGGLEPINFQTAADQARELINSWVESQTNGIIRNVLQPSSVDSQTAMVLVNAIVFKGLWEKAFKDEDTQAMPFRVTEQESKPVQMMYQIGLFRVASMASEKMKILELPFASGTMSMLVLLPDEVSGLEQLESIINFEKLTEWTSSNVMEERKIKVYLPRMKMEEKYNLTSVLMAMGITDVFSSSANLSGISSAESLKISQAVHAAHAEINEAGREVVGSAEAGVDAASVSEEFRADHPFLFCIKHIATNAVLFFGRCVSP

T1 sequence (P02769 25-607 limits assumed): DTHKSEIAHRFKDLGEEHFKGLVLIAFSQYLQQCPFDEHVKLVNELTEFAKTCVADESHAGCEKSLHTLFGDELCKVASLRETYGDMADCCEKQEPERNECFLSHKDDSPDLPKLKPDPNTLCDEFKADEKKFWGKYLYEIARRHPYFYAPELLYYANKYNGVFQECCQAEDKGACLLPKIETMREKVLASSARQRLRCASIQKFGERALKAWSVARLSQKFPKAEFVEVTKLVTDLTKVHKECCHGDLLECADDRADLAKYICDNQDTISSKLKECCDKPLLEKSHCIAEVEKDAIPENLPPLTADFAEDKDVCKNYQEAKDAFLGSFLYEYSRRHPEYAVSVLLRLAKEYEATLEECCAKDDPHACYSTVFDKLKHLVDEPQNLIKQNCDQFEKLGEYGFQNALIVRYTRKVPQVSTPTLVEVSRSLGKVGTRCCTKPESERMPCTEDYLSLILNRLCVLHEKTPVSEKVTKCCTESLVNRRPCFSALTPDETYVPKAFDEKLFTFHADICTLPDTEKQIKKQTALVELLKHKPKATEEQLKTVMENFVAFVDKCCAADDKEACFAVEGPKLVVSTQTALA

Binder	binding result (BSA)	binding result (OVA)
B1	no binding (tested: OD450 below 0.1)	no binding (tested: OD450 below 0.1)
B2	no binding (tested: OD450 below 0.1)	no binding (tested: OD450 below 0.1)
B3	no binding (tested: OD450 below 0.1)	no binding (tested: OD450 below 0.1)
B4	no binding (tested: OD450 below 0.1)	no binding (tested: OD450 below 0.1)
